Assay results: the supplement of paper PMC7877785
± gives the uncertainty stated by the source.

Test: self-splicing fitness, log relative to wild type (ln ratio); higher = more splicing; Tetrahymena group I intron in knt gene, E. coli kanamycin selection, DiMSum; sequences stand for … in CUCUCU…GGAGGGAAAAGUUAUCAGGCAUGCACCUGGUAGCUAGUCUUUAAACCAAUAGAUUGCAUCGGUUUAAAAGGCAAGACCGUCAAAUUGCGGGAAAGGGGUCAACAGCCGUUCAGUACCAAGUCUCAGGGGAAACUUUGAGAUGGCCUUGCAAAGGGUAUGGUAAUAAGCUGACGGACAUGGUCCUAACCACGCAGCCAAGUCCUAAGUCAACAGAUCUUCUGUUGAUAUGGAUGCAGUUCACAGACUAAAUGUCGGUCGGGGAAGAUGUAUUCUUCUCAUAAGAUAUAGUCGGACCUCUCCUUAAUGGGAGCUAGCGGAUGAAGUGAUGCAACACUGGAGCCGCUGGGAACUAAUUUGUAUGCGAAAGUAUAUUGAUUAGUUUUGGAGUACUCGUGGUCG
In short: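 Pooled colonies went to amplicon sequencing on an Illumina HiSeq 2500 after six replicate transformations. The plates were LB agar with 100 μg/mL carbenicillin, 50 μM IPTG and 0.2% rhamnose, with or without 25 μg/mL kanamycin, incubated overnight at 37°C or 30°C. The E. coli BL21(DE3) library had all eight P1ex-region intron nucleotides randomised, the intron placed in the knt kanamycin-resistance gene on pET-22b(+). DiMSum fitness is the error-weighted combination of replicate fold changes, kanamycin against none, normalised to wild type.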

Sequence | self-splicing fitness (ln) (30 °C) | self-splicing fitness (ln) (37 °C)
UGAGAGCAAUAUUACGCCCG | -3.12 ± 0.3 | -0.718 ± 0.21
UGAGAGCAAUAUUACGCGGU |  | -0.929 ± 0.39
UGAGAGCAAUAUUACGUACG | -2.03 ± 0.13 | -1.59 ± 0.22
UGAGAGCAAUAUUACGUCAG |  | -3.02 ± 0.31
UGAGAGCAAUAUUACGUCAU | -1.71 ± 0.26 | 
UGAGAGCAAUAUUACGUCGU | -2.38 ± 0.2 | -2.64 ± 0.36
UGAUAGCAAUAUUACGAACU | -1.03 ± 0.12 | 0.402 ± 0.11
UGAUAGCAAUAUUACGACUG | 0.053 ± 0.18 | -0.49 ± 0.17
UGAUAGCAAUAUUACGAGGU | -3.79 ± 0.24 | -3.13 ± 0.25
UGAUAGCAAUAUUACGCUAU | -3.98 ± 0.47 | -2.04 ± 0.27
UGAUAGCAAUAUUACGCUGG | -1.15 ± 0.11 | -0.645 ± 0.12
UGAUAGCAAUAUUACGGAAC |  | -1.21 ± 0.42
UGAUAGCAAUAUUACGGAAU | -2.96 ± 0.18 | -2 ± 0.23
UGAUAGCAAUAUUACGGAGU | -3.8 ± 0.37 | -2.42 ± 0.41
UGAUAGCAAUAUUACGGAUC | -2.86 ± 0.22 | -2.13 ± 0.3
UGAUAGCAAUAUUACGGCAC | -2.97 ± 0.33 | -1.51 ± 0.43
UGAUAGCAAUAUUACGGCCU | -0.718 ± 0.097 | -0.609 ± 0.15
UGAUAGCAAUAUUACGGCGA | -0.745 ± 0.093 | -0.477 ± 0.13
UGAUAGCAAUAUUACGGCUA | -0.455 ± 0.14 | 0.0243 ± 0.14
UGAUAGCAAUAUUACGGGAA | -2.65 ± 0.2 | -2.44 ± 0.21
UGAUAGCAAUAUUACGGGGG | -1.83 ± 0.18 | -2.45 ± 0.28
UGAUAGCAAUAUUACGGUGA | -1.46 ± 0.16 | -0.637 ± 0.19
UGAUAGCAAUAUUACGGUUG | -0.902 ± 0.072 | 0.392 ± 0.11
UGAUAGCAAUAUUACGUAAG | -1.52 ± 0.093 | -0.601 ± 0.11
UGAUAGCAAUAUUACGUACU | 0.125 ± 0.1 | -0.524 ± 0.11

Sequence | self-splicing fitness (ln) (30 °C) | self-splicing fitness (ln) (37 °C)
UGAUAGCAAUAUUACGUAUU | -3.26 ± 0.25 | -2.34 ± 0.29
UGAUAGCAAUAUUACGUGCC | -2.61 ± 0.2 | -1.26 ± 0.2
UGAUAGCAAUAUUACGUUAG | -1.92 ± 0.1 | -1.57 ± 0.15
UGAUAGCAAUAUUACGUUAU | -3.61 ± 0.18 | -2.52 ± 0.17
UGAUAGCAAUAUUACGUUUU | -3.75 ± 0.16 | -1.85 ± 0.14
UGCAAGCAAUAUUACGAAAC |  | -2.65 ± 0.36
UGCAAGCAAUAUUACGACAU | -1.679 ± 0.013 | -0.674 ± 0.032
UGCAAGCAAUAUUACGACGG | -0.954 ± 0.074 | -0.946 ± 0.079
UGCAAGCAAUAUUACGAGAG | -3.4 ± 0.2 | -2.97 ± 0.21
UGCAAGCAAUAUUACGAUAG | -1.09 ± 0.067 | -0.0803 ± 0.085
UGCAAGCAAUAUUACGCCAU | -4.18 ± 0.42 | -1.87 ± 0.29
UGCAAGCAAUAUUACGCCCG | -0.288 ± 0.18 | 0.109 ± 0.2
UGCAAGCAAUAUUACGCCGU | -2.38 ± 0.36 | -1.81 ± 0.25
UGCAAGCAAUAUUACGCGUU | -2.66 ± 0.16 | -1.29 ± 0.14
UGCAAGCAAUAUUACGCUAA | -2.73 ± 0.17 | 0.000151 ± 0.11
UGCAAGCAAUAUUACGCUCA | -0.11 ± 0.16 | 0.138 ± 0.2
UGCAAGCAAUAUUACGGAGG | -3.21 ± 0.19 | -1.42 ± 0.16
UGCAAGCAAUAUUACGGAUU | -2.63 ± 0.11 | -1.84 ± 0.14
UGCAAGCAAUAUUACGGUAA | -1.08 ± 0.12 | -0.838 ± 0.11
UGCAAGCAAUAUUACGGUGU | -3.9 ± 0.23 | -2.92 ± 0.24
UGCAAGCAAUAUUACGGUUG | -2.49 ± 0.11 | -1.88 ± 0.13
UGCAAGCAAUAUUACGUCAC | -2.88 ± 0.47 | -2.27 ± 0.24
UGCAAGCAAUAUUACGUGUC | -1.55 ± 0.09 | -3.56 ± 0.23
UGCAAGCAAUAUUACGUUCC | -3.72 ± 0.33 | -1.43 ± 0.36
UGCCAGCAAUAUUACGAAAG | -2.78 ± 0.13 | -1.4 ± 0.15

Sequence | self-splicing fitness (ln) (30 °C) | self-splicing fitness (ln) (37 °C)
UGCCAGCAAUAUUACGACUU | -2.97 ± 0.14 | -1.46 ± 0.13
UGCCAGCAAUAUUACGAGCU | -1.17 ± 0.075 | -0.631 ± 0.098
UGCCAGCAAUAUUACGAUCC | -3.25 ± 0.29 | -1.11 ± 0.42
UGCCAGCAAUAUUACGAUGC | -3.57 ± 0.17 | -2.35 ± 0.21
UGCCAGCAAUAUUACGAUGG | -3.49 ± 0.2 | -2.16 ± 0.18
UGCCAGCAAUAUUACGCACG | -1.48 ± 0.2 | -0.233 ± 0.14
UGCCAGCAAUAUUACGCAGG | -4.43 ± 0.33 | -3.14 ± 0.28
UGCCAGCAAUAUUACGCCAC |  | -2.54 ± 0.29
UGCCAGCAAUAUUACGCCCA | 0.23 ± 0.099 | -0.149 ± 0.13
UGCCAGCAAUAUUACGCGAG | -3.22 ± 0.17 | -2.92 ± 0.21
UGCCAGCAAUAUUACGCGCU | -1.3 ± 0.12 | -0.531 ± 0.17
UGCCAGCAAUAUUACGCGGC |  | -1.85 ± 0.35
UGCCAGCAAUAUUACGCUCA | -0.505 ± 0.061 | -0.207 ± 0.07
UGCCAGCAAUAUUACGCUCU | -1.42 ± 0.079 | 0.293 ± 0.098
UGCCAGCAAUAUUACGGGGC | -3.04 ± 0.16 | -1.74 ± 0.17
UGCCAGCAAUAUUACGGGGG | -3.83 ± 0.17 | -2.9 ± 0.17
UGCCAGCAAUAUUACGGGUA | -2.25 ± 0.15 | -1.24 ± 0.15
UGCCAGCAAUAUUACGGUCA | -0.926 ± 0.081 | -0.0439 ± 0.092
UGCCAGCAAUAUUACGUCUU | -2.22 ± 0.18 | -1.86 ± 0.21
UGCCAGCAAUAUUACGUGCA | -2.55 ± 0.1 | -1.53 ± 0.12
UGCCAGCAAUAUUACGUGGA | -3.33 ± 0.18 | -1.71 ± 0.13
UGCCAGCAAUAUUACGUGUG | -1.49 ± 0.052 | -1.14 ± 0.071
UGCCAGCAAUAUUACGUUCC | -1.31 ± 0.31 | -2.25 ± 0.3
UGCGAGCAAUAUUACGAGCG | -2.92 ± 0.33 | -2.07 ± 0.3
UGCGAGCAAUAUUACGAUAC | -2.68 ± 0.28 | -1.45 ± 0.32

Sequence | self-splicing fitness (ln) (30 °C) | self-splicing fitness (ln) (37 °C)
UGCGAGCAAUAUUACGAUCC |  | -2.04 ± 0.46
UGCGAGCAAUAUUACGAUCU | -1.84 ± 0.21 | -1.06 ± 0.16
UGCGAGCAAUAUUACGAUGG | -3.43 ± 0.2 | -1.93 ± 0.17
UGCGAGCAAUAUUACGAUUA | -1.56 ± 0.13 | -1.1 ± 0.11
UGCGAGCAAUAUUACGCCUC | -2.78 ± 0.43 | 
UGCGAGCAAUAUUACGCUUU | -2.38 ± 0.15 | -3.02 ± 0.28
UGCGAGCAAUAUUACGGAAA | -3.19 ± 0.33 | -2.55 ± 0.3
UGCGAGCAAUAUUACGGAGG |  | -1.17 ± 0.18
UGCGAGCAAUAUUACGGGAA | -3.87 ± 0.38 | -2.5 ± 0.24
UGCGAGCAAUAUUACGGGCC | -2.91 ± 0.28 | -1.54 ± 0.21
UGCGAGCAAUAUUACGGUAA | -2.4 ± 0.17 | -2.22 ± 0.16
UGCGAGCAAUAUUACGUACC | -2.77 ± 0.14 | -2.75 ± 0.25
UGCGAGCAAUAUUACGUACU | -2.58 ± 0.24 | -1.23 ± 0.22
UGCGAGCAAUAUUACGUAGA |  | -0.382 ± 0.22
UGCGAGCAAUAUUACGUCAA |  | -0.906 ± 0.35
UGCGAGCAAUAUUACGUCGU | -3.64 ± 0.25 | -3.4 ± 0.37
UGCGAGCAAUAUUACGUGUC | -4.36 ± 0.33 | -2.01 ± 0.26
UGCGAGCAAUAUUACGUUCG |  | -1.25 ± 0.34
UGCUAGCAAUAUUACGAAAU | -3.79 ± 0.4 | -1.67 ± 0.36
UGCUAGCAAUAUUACGAAGG | -2.13 ± 0.16 | -0.838 ± 0.34
UGCUAGCAAUAUUACGAGAU | -3.93 ± 0.31 | -2.41 ± 0.3
UGCUAGCAAUAUUACGAGCA |  | -2.39 ± 0.39
UGCUAGCAAUAUUACGAGUA | -1.34 ± 0.072 | -0.447 ± 0.076
UGCUAGCAAUAUUACGAUCG | 0.18 ± 0.12 | 0.439 ± 0.23
